Laboratory results published in publication PMC5109273.

What was measured:
TAP (Homo sapiens) = TAP (Homo sapiens) (UniProt Q03518); settings: cited from earlier work
[1] = target: ICP47-TAP fusion complex with fused ICP47(∆1-11) (UniProt P03170); test: co-IP; HEK293T co-transfected 1:1:5 (TAP1:TAP2:viral factor); solubilised in 2% digitonin; sequential precipitation via SBP tag (streptavidin agarose, biotin elution) and C8 tag (anti-C8 antibody on Dynabeads); co-precipitated mVenus-tagged viral factor quantified by SDS-PAGE and in-gel fluorescence relative to TAP lacking fused ICP47; on ice, pH 7.4

Sequence of UniProt Q03518 (Q03518 whole entry, chain 1 of 2, the tested form may be a part): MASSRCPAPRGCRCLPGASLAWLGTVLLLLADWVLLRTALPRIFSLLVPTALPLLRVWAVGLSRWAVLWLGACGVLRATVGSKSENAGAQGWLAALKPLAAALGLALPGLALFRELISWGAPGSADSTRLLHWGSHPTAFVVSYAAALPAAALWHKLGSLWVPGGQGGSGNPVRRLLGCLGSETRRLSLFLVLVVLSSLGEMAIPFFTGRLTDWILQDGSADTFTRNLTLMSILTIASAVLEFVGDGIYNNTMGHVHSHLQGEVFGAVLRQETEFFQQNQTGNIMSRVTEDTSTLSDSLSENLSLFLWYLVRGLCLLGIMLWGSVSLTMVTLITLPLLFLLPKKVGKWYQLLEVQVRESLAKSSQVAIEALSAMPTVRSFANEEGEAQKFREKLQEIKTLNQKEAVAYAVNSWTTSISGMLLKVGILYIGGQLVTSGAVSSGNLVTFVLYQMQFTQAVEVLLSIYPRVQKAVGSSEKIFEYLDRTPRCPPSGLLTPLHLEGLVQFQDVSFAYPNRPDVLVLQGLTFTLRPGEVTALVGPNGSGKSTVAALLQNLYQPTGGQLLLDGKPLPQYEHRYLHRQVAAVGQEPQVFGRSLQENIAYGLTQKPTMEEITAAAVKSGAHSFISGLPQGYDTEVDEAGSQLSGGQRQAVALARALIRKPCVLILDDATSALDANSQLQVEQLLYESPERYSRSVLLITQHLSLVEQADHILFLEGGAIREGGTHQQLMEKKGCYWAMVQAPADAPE
Sequence of UniProt Q03518 (Q03519 whole entry, chain 2 of 2, further chain, the tested form may be a part): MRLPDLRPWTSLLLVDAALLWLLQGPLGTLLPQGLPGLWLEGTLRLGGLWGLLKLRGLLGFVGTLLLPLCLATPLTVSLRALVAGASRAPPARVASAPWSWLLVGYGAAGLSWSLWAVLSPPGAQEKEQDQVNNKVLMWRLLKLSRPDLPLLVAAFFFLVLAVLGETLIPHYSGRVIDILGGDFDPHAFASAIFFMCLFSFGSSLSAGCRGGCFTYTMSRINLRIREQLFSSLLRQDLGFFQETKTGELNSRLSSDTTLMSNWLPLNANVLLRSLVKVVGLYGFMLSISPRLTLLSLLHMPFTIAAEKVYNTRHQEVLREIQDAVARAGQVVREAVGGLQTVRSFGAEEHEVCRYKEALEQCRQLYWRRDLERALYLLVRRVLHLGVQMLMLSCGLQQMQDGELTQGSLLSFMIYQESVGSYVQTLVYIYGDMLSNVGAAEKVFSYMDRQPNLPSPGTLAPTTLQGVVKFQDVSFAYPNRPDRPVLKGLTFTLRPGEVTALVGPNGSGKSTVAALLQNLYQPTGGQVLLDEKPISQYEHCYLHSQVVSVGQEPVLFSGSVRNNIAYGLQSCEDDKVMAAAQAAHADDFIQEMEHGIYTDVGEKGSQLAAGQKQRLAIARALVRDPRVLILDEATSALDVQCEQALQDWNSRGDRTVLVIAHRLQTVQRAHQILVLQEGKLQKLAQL

ICP47 (from UniProt P03170)
Kd (TAP (Homo sapiens)): 50 nM

B1: non-fused full-length ICP47(1-88) with C-terminal mVenus-myc-His10 tag (natural protein)
chain: MSWALEMADTFLDTMRVGPRTYADVRDEINKRGREDREAARTAVHDPERPLLRSPGLLPEIAPNASLGVAHRRTGGTVTDSPRNPVTR
co-precipitated viral factor relative to the TAP complex lacking fused ICP47 [1]: 100%
